Here are results for one molecule from paper PMC5123051, “Neutralization mechanism of a highly potent antibody against Zika virus” (Nature Communications, 2016).

The experiment deals with T1, Zika virus envelope (E) protein on purified ZIKV particles, strain H/PF/2013 (Zika virus H/PF/2013 (French Polynesia …, strain)).
T1 construct: envelope protein E of Zika virus strain H/PF/2013, cut product of the viral polyprotein, on the virus surface; Stood in the assay as whole virus particles: 180 copies of E in icosahedral symmetry, as dimers, three dimers forming a raft, 30 rafts; M protein and the lipid membrane are also present; E carries a glycan on the '150 glycan loop'; also called molecules A, B and C; source: Aedes …
Briefly: cryo-EM structure; Fab C10 mixed with purified ZIKV at 1.5 Fab to every E protein, 30 min at 37 °C then ~1 h on ice; pH8.0 (NTE buffer); 4.0 Å. The following applies: both partners purified.

B1: Fab C10 (Fab, V domains shown)
VH: EVQLVESGAEVKKPGASVKVSCKASGYTFTSYAMHWVRQAPGQRLEWMGWINAGNGNTKYSQKFQDRVTITRDTSASTAYMELSSLRSEDTAIYYCARDKVDDYGDYWFPTLWYFDYWGQGTLVTVS
VL: ALTQPASVSGSPGQSITISCTGTSSDVGGFNYVSWFQQHPGKAPKLMLYDVTSRPSGVSSRFSGSKSGNTASLTISGLQAEDEADYYCSSHTSRGTWVFGGGTKLTVL
notes: heavy chain variable region of C10; human IgG1 heavy chain constant region, the part that stays in the Fab after papain digestion; light chain variable region of C10; human lambda 2 light chain constant region; Fab cut from the IgG with papain; also called Fab fragment of HMAb C10; Fab regions of C10 IgG; source: C10 IgG from HEK293T cells, transiently co-transfected, protein A purified; Fab by …
In the case of B1, the “stoichiometry N” value is 180 copies of Fab per virus particle.
